Laboratory results taken from paper PMC7717530, “EphA7 isoforms differentially regulate cortical dendrite development” (PLoS ONE, 2020).

Target: EphA7 full-length isoform with hemagglutinin tag (EphA7-FL-HA) (UniProt Q61772-1 28-998)
Assay: cell-based or functional assay

Chain of EphA7 full-length isoform with hemagglutinin tag (EphA7-FL-HA) (Q61772 28-998): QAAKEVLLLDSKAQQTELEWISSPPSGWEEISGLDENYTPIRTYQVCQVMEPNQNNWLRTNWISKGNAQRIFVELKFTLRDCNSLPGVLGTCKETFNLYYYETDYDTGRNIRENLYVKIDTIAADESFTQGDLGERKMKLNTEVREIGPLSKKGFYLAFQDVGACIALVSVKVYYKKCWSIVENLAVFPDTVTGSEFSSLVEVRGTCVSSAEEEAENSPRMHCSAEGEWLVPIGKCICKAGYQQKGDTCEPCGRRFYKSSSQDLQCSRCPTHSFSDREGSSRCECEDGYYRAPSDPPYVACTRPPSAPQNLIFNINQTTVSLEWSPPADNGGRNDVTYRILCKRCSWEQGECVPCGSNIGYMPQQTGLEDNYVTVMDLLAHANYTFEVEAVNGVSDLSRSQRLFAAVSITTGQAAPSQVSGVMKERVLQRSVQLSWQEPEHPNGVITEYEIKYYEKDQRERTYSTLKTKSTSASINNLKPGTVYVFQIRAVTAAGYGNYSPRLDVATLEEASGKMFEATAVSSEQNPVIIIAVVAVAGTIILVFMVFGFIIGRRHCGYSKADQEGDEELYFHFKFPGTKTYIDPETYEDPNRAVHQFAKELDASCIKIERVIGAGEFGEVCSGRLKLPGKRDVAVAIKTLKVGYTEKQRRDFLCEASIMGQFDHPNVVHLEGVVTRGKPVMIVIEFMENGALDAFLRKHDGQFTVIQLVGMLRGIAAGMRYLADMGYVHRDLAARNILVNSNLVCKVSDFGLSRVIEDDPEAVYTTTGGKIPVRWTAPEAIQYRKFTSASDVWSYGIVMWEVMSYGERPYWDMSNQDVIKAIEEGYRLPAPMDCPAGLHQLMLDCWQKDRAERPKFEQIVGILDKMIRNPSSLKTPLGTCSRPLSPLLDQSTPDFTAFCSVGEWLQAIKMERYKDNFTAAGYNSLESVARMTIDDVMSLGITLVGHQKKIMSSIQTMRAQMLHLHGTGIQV

EphA7-FL tyrosine phosphorylation (phospho-tyrosine over total HA after HA IP) in HEK cells stimulated with clustered ephrin-A5-hFC, at EphA7-T1:FL ratios 1:1 (65%) and 5:1 (42%) compared to 0.2:1: 65 % of EphA7-FL tyrosine phosphorylation compared to a ratio of 0.2:1
B1: EphA7 truncated isoform with myc tag (EphA7-T1-myc) (receptor)
chain: not shown
